Experimental data taken from US7226791B2, “Polynucleotides encoding novel guanylate binding proteins (GBP's)” (Bristol-Myers Squibb Company, priority 2003, dated 2007).

Assays:
Conditions in all cases: myc-tagged protein expressed in Cos-7 cells; FIG. 49
[1] = Guanine nucleotide binding: Cos-7 lysates on agarose coated with GTP, myc western blot
Description: (§1) Genes encoding different GBP family members were cloned into the vector pcDNA3.1mychis (Invitrogen) for expression in mammalian cells. Cos-7 cells were transfected with 5 μg of DNA per group using lipofectamine 2000 (Invitrogen) according to manufacturer's instructions. Approximately 18 hours after transfection, the cells were harvested using trypsin and lysed in RIPA buffer (10 mM sodium phosphate pH 7.2, 0.25 M sodium chloride, 0.1% SDS, 1% NP40, 1% sodium deoxycholate, 2 mM EDTA, protease inhibitor cocktail). An aliquot of the lysate was reserved for the whole cell lysate sample. The remainder was divided in thirds, and incubated for three hours at 4° C. with agarose coated with either GTP, GDP, or GMP (Sigma Chemical Company). The beads were pelleted, washed with buffer (0.1% NP40, 150 mM NaCl, 50 mM Tris pH7.5), and resuspended in SDS sample buffer. Samples were electrophoresed through 4–20% tris-glycine gels, transferred to nitrocellulose, blocked overnight with 5% non-fat dry milk and 0.3% BSA in Tris-buffered saline, and probed with a mouse monoclonal antibody specific for the myc epitope tag (Invitrogen).

[2] = Guanine nucleotide binding: Cos-7 lysates on agarose coated with GMP, myc western blot
Description: as §1

[3] = Guanine nucleotide binding: Cos-7 lysates on agarose coated with GDP, myc western blot
Description: as §1

B1: GBP-1: known guanylate binding protein family member, myc-tagged, expressed in Cos-7 cells (protein, UniProt P32455 1-589, looked up)
Guanylate-binding protein 1: MASEIHMTGPMCLIENTNGRLMANPEALKILSAITQPMVVVAIVGLYRTGKSYLMNKLAGKKKGFSLGSTVQSHTKGIWMWCVPHPKKPGHILVLLDTEGLGDVEKGDNQNDSWIFALAVLLSSTFVYNSIGTINQQAMDQLYYVTELTHRIRSKSSPDENENEVEDSADFVSFFPDFVWTLRDFSLDLEADGQPLTPDEYLTYSLKLKKGTSQKDETFNLPRLCIRKFFPKKKCFVFDRPVHRRKLAQLEKLQDEELDPEFVQQVADFCSYIFSNSKTKTLSGGIQVNGPRLESLVLTYVNAISSGDLPCMENAVLALAQIENSAAVQKAIAHYEQQMGQKVQLPTETLQELLDLHRDSEREAIEVFIRSSFKDVDHLFQKELAAQLEKKRDDFCKQNQEASSDRCSALLQVIFSPLEEEVKAGIYSKPGGYRLFVQKLQDLKKKYYEEPRKGIQAEEILQTYLKSKESMTDAILQTDQTLTEKEKEIEVERVKAESAQASAKMLQEMQRKNEQMMEQKERSYQEHLKQLTEKMENDRVQLLKEQERTLALKLQEQEQLLKEGFQKESRIMKNEIQDLQTKMRRRKAC
modifications: myc tag
binding to GTP agarose beads [1]: bound well
binding to GMP agarose beads [2]: bound well
binding to GDP agarose beads [3]: bound well

B2: GBP-2: known guanylate binding protein family member, myc-tagged, expressed in Cos-7 cells (protein, UniProt P32456 1-588, looked up)
Guanylate-binding protein 2: MAPEINLPGPMSLIDNTKGQLVVNPEALKILSAITQPVVVVAIVGLYRTGKSYLMNKLAGKKNGFSLGSTVKSHTKGIWMWCVPHPKKPEHTLVLLDTEGLGDIEKGDNENDSWIFALAILLSSTFVYNSMGTINQQAMDQLHYVTELTDRIKANSSPGNNSVDDSADFVSFFPAFVWTLRDFTLELEVDGEPITADDYLELSLKLRKGTDKKSKSFNDPRLCIRKFFPKRKCFVFDWPAPKKYLAHLEQLKEEELNPDFIEQVAEFCSYILSHSNVKTLSGGIPVNGPRLESLVLTYVNAISSGDLPCMENAVLALAQIENSAAVEKAIAHYEQQMGQKVQLPTETLQELLDLHRDSEREAIEVFMKNSFKDVDQMFQRKLGAQLEARRDDFCKQNSKASSDCCMALLQDIFGPLEEDVKQGTFSKPGGYRLFTQKLQELKNKYYQVPRKGIQAKEVLKKYLESKEDVADALLQTDQSLSEKEKAIEVERIKAESAEAAKKMLEEIQKKNEEMMEQKEKSYQEHVKQLTEKMERDRAQLMAEQEKTLALKLQEQERLLKEGFENESKRLQKDIWDIQMRSKSLEPIC
modifications: myc tag
binding to GTP agarose beads [1]: bound well
binding to GMP agarose beads [2]: bound well
binding to GDP agarose beads [3]: bound well

B3: GBP-5: known guanylate binding protein family member, myc-tagged, expressed in Cos-7 cells (protein, UniProt Q96PP8 1-583, looked up)
Guanylate-binding protein 5: MALEIHMSDPMCLIENFNEQLKVNQEALEILSAITQPVVVVAIVGLYRTGKSYLMNKLAGKNKGFSVASTVQSHTKGIWIWCVPHPNWPNHTLVLLDTEGLGDVEKADNKNDIQIFALALLLSSTFVYNTVNKIDQGAIDLLHNVTELTDLLKARNSPDLDRVEDPADSASFFPDLVWTLRDFCLGLEIDGQLVTPDEYLENSLRPKQGSDQRVQNFNLPRLCIQKFFPKKKCFIFDLPAHQKKLAQLETLPDDELEPEFVQQVTEFCSYIFSHSMTKTLPGGIMVNGSRLKNLVLTYVNAISSGDLPCIENAVLALAQRENSAAVQKAIAHYDQQMGQKVQLPMETLQELLDLHRTSEREAIEVFMKNSFKDVDQSFQKELETLLDAKQNDICKRNLEASSDYCSALLKDIFGPLEEAVKQGIYSKPGGHNLFIQKTEELKAKYYREPRKGIQAEEVLQKYLKSKESVSHAILQTDQALTETEKKKKEAQVKAEAEKAEAQRLAAIQRQNEQMMQERERLHQEQVRQMEIAKQNWLAEQQKMQEQQMQEQAAQLSTTFQAQNRSLLSELQHAQRTVNNDDPC
modifications: myc tag
binding to GTP agarose beads [1]: weakly
binding to GMP agarose beads [2]: bound well
binding to GDP agarose beads [3]: bound well
